Fewer inactive variants are shown than the library holds.
B1: TPR 5TU (parent)
chain: GGAUCUUCUCGAUCUAACAAAAAAGACAAAUCUGCCACAAAGCUUGAGAGCAUCUUCGGAUGCAGAGGCGGCAGCCUUCGGUGGCGCGAUAGCGCCAACGUUCUCAACUAUGACACGCAAAACGCGUGCUCCGUUGAAUGGAGUUUAUCAUG

Variants of: B1
Experiment: polymerase ribozyme fitness, log enrichment relative to wild type (log ratio); higher = more active; in vitro selection for triplet polymerase activity
Outline: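 The heterodimeric triplet polymerase ribozyme's subunits were each mutagenized into PCR-built libraries and transcribed. Every library was selected once, in triplicate, by annealing with a biotinylated primer, the partner subunit and triplets, incubating frozen at −7 °C, gel-excising extended constructs, capturing on streptavidin beads and running RT-PCR. Input and output libraries were Illumina-sequenced, with genotypes kept only at ≥10 input reads and ≥1 read per output. Fitness, from inverse-variance-weighted replicate averages, is the base-2 logarithm of genotype enrichment over wild-type enrichment.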

First: A26C G68C A122C U135C U139G U145G
Second: A12U G84A
The “polymerase ribozyme fitness (log ratio)” value of the first is lower: ≤ -4.2 for the first, -1.05 for the second.

C8G G25C U53G C63U C108A and C87G C114G A137G cannot be ordered by “polymerase ribozyme fitness (log ratio)” value: ≤ -4.2 for the first, ≤ -4.2 for the second.

G42A G100U and C36U A37G U53A C54U C87G cannot be ordered by “polymerase ribozyme fitness (log ratio)” value: ≤ -4.2 for the first, ≤ -4.2 for the second.

Going from U45A G83C C105U C131G to A73U A122G, the “polymerase ribozyme fitness (log ratio)” value rises from ≤ -4.2 to -0.995.

First: C14G C38A A52C C57A G62A G83A A89C C96G A110C
Second: C85G C131G G152U
The “polymerase ribozyme fitness (log ratio)” value of the first is higher: -3.85 for the first, ≤ -4.2 for the second.

First: A21U
Second: A20G A30U C63A C87U U146C
The “polymerase ribozyme fitness (log ratio)” value of the first is higher: 0.554 for the first, ≤ -4.2 for the second.

Going from G83U A98U C105U to G70A A73G C79U G88C G133C A137C, the “polymerase ribozyme fitness (log ratio)” value falls from -0.156 to ≤ -4.2.

First: A41U A60U U144G
Second: U15A A21G A49G C96G
The “polymerase ribozyme fitness (log ratio)” value of the first is higher: -0.464 for the first, -1.26 for the second.

First: G117U U135C
Second: C14G U15A C54U C69A C99A U148A
The “polymerase ribozyme fitness (log ratio)” value of the first is higher: -2.36 for the first, ≤ -4.2 for the second.

First: A39U C93U
Second: C43U C85U G88U C96A C123G G124C C129U G133C U139C
The “polymerase ribozyme fitness (log ratio)” value of the first is higher: -3.36 for the first, ≤ -4.2 for the second.

Compared with G58C C96U, C51U C96G C132A is lower in “polymerase ribozyme fitness (log ratio)” value: -1.02 for the first, -3.26 for the second.

First: C93G G141U
Second: G11C C32G G34C G88C A106G C108A A110U C149G
The “polymerase ribozyme fitness (log ratio)” value of the first is higher: -2.01 for the first, ≤ -4.2 for the second.

Going from A37U A113U C116U G136C to U9C C85U, the “polymerase ribozyme fitness (log ratio)” value rises from ≤ -4.2 to -3.24.

Going from G92A C125A U134G to A12U U55A C57G C103A G128U A147C, the “polymerase ribozyme fitness (log ratio)” value falls from -3.58 to -4.11.

First: U53A C87A A89U G141C
Second: A60U C93A
The “polymerase ribozyme fitness (log ratio)” value of the first is lower: ≤ -4.2 for the first, -3.06 for the second.

First: A20G U56A
Second: A40C A52C G81A G83A C93G
The “polymerase ribozyme fitness (log ratio)” value of the first is higher: -0.723 for the first, ≤ -4.2 for the second.

Going from C14G G46U G48A A73U U77C to C96U A98G, the “polymerase ribozyme fitness (log ratio)” value rises from ≤ -4.2 to -1.3.

A22G A24G G92U and G59A G133U G136C U148C cannot be ordered by “polymerase ribozyme fitness (log ratio)” value: ≤ -4.2 for the first, ≤ -4.2 for the second.

A22C U33A G50A A66U C93U G100C A138G C149A and C79G C85A A138G U148A cannot be ordered by “polymerase ribozyme fitness (log ratio)” value: ≤ -4.2 for the first, ≤ -4.2 for the second.

Going from C54U A115U to A23U U56A A73U G86A C93G C131G U139C, the “polymerase ribozyme fitness (log ratio)” value falls from -2.4 to ≤ -4.2.

C14G A39G U53A C54U C93A and U6C A24U A28C C35U A37U U90G C93A C131U U145C cannot be ordered by “polymerase ribozyme fitness (log ratio)” value: ≤ -4.2 for the first, ≤ -4.2 for the second.

Compared with U33A A115G U139G, C99U A107U is higher in “polymerase ribozyme fitness (log ratio)” value: ≤ -4.2 for the first, -3.88 for the second.

Compared with U53A C99U U134A, A52C C93U U102G is lower in “polymerase ribozyme fitness (log ratio)” value: -3.7 for the first, ≤ -4.2 for the second.

Going from U45A A64U G67C G74A G83A A120G to G84A A98G, the “polymerase ribozyme fitness (log ratio)” value rises from ≤ -4.2 to -2.7.

Compared with G86C G117A, A39U C63U C75G C76A C87G C105U C129U G143C is lower in “polymerase ribozyme fitness (log ratio)” value: -1.84 for the first, ≤ -4.2 for the second.

U7A A110C A138U and U6A C14U G65U A91G U148A cannot be ordered by “polymerase ribozyme fitness (log ratio)” value: ≤ -4.2 for the first, ≤ -4.2 for the second.

Compared with G83C U148A, C14G G25A U55A U127C is lower in “polymerase ribozyme fitness (log ratio)” value: -3.1 for the first, ≤ -4.2 for the second.

Going from U82C A89U to U45A G62C A107U, the “polymerase ribozyme fitness (log ratio)” value falls from -0.15 to ≤ -4.2.

First: A16G G83A
Second: C8A C116U U135C A150G
The “polymerase ribozyme fitness (log ratio)” value of the first is higher: -0.814 for the first, ≤ -4.2 for the second.

First: U61A A73G G94U
Second: C8G G50A A66C G84A
The “polymerase ribozyme fitness (log ratio)” value of the first is higher: -3 for the first, ≤ -4.2 for the second.

First: C51U C85U
Second: C14G A20C G50U U53A G126U U139A
The “polymerase ribozyme fitness (log ratio)” value of the first is higher: -0.8 for the first, ≤ -4.2 for the second.

First: A49U G50A
Second: A98G U101C G143U C149U
The “polymerase ribozyme fitness (log ratio)” value of the first is higher: -0.047 for the first, ≤ -4.2 for the second.

Going from G50A G84U A147U to A121G A122C A137C, the “polymerase ribozyme fitness (log ratio)” value falls from -1.53 to -4.06.

Compared with A115U C118A, A52G U53A G84A is higher in “polymerase ribozyme fitness (log ratio)” value: -1.83 for the first, -0.8 for the second.

Going from A17U C87G to A47G C69A A122G, the “polymerase ribozyme fitness (log ratio)” value rises from -3.75 to -3.43.

Going from G42A G71A A91U A97U G100C to G11U U104G, the “polymerase ribozyme fitness (log ratio)” value rises from ≤ -4.2 to -1.58.

Going from G11U G84A U90C A119G C125A to G11C C54U C85U A115G, the “polymerase ribozyme fitness (log ratio)” value rises from ≤ -4.2 to -3.49.

A24U G59U C87U G128A G140U U151C and C10G C27A U82C G83A A91U cannot be ordered by “polymerase ribozyme fitness (log ratio)” value: ≤ -4.2 for the first, ≤ -4.2 for the second.

Going from U55A G70C G92U A119U to C8A A17C A24G A30G C35G G81C A89C G141C, the “polymerase ribozyme fitness (log ratio)” value falls from -3.25 to -3.67.

Compared with G34A U55A, C51A A89C C93U G117U A137U A150C is lower in “polymerase ribozyme fitness (log ratio)” value: -2.46 for the first, ≤ -4.2 for the second.

C87A U127G and G42C G92A cannot be ordered by “polymerase ribozyme fitness (log ratio)” value: ≤ -4.2 for the first, ≤ -4.2 for the second.

In the case of G62U C72U C93U A122G, the “polymerase ribozyme fitness (log ratio)” value is reported as -3.31.

Reference: the RNAGym collection of RNA variant scans (doi:10.1073/pnas.2313332121)
